Experimental findings from patent US20110020786A1 (BAYLOR COLLEGE OF MEDICINE, published 2011) are described below.

Ends that are not written are not given here.

Test [1] concerns the target T1, Norwalk virus-like particles (genogroup I) (Norwalk virus (genogroup I Norovirus), UniProt Q83884 1-530).
T1 construct: also called NV; NVLPs
T1 sequence: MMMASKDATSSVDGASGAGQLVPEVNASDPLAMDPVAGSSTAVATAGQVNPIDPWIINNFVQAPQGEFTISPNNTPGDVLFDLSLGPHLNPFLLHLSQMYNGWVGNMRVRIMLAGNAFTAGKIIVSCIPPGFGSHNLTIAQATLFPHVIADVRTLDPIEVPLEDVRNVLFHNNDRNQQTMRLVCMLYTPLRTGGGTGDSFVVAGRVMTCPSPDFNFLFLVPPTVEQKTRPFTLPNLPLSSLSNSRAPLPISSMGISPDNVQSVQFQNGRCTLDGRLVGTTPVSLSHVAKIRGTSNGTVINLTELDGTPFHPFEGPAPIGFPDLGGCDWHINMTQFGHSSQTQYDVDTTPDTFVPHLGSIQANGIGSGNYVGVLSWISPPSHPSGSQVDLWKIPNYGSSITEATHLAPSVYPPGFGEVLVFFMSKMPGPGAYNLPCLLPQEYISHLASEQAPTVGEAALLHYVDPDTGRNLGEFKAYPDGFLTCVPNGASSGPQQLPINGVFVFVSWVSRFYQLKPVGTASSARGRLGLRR
Briefly: SPR (BIAcore), VLPs immobilized, dendrimer injected.

Test [2] has as its target T2, Houston virus-like particles (genogroup II) (Norovirus genogroup II, Houston strain).
T2 construct: Recombinant VLP; also called HOV
The test is described as above.

For test [3], the target named is T3, Snow Mountain virus-like particles (genogroup II) (Norovirus genogroup II, Snow Mountain …).
T3 construct: Recombinant VLP; also called SMV
Described as above.

In test [4] the target is T4, Grimsby virus-like particles (genogroup II) (Norovirus genogroup II, Grimsby strain).
T4 construct: Recombinant VLP; also called GRV
The test is described as above.

Test [5] has as its target T1, Norwalk virus-like particles (genogroup …). Briefly: ELISA: dendrimer coated at 0.4 mg/mL (32 µM), VLPs added at 2 µg/mL, detection with MAb3912 and goat anti-mouse-HRP, ABTS at 405 nm. Background: An ELISA detects its analyte on a solid surface through an enzyme-linked reagent.
For test [6] the target is unchanged. Briefly: ELISA: dendrimer coated, VLPs added, detection with MAb3912 and goat anti-mouse-HRP, ABTS at 405 nm.

B1: AHFQTHTVPLSL8 (the octovalent dendrimer of SEQ ID NO: 2) (peptide)
peptide: AHFQTHTVPLSL
modifications: also: octovalent MAP dendrimer, eight copies on branching lysine core
notes: Octovalent peptide dendrimer (MAP)
For B1, the equilibrium average response is 6750 RU in test [1], 6710 RU in test [2], 6430 RU in test [3] and 6380 RU in test [4].

B2: RHFQTHTVPLSL8 (the octovalent dendrimer of SEQ ID NO: 1) (peptide)
peptide: RHFQTHTVPLSL
modifications: also: octovalent MAP dendrimer, eight copies on branching lysine core
notes: as for B1
For B2, the binding result in test [5] is “binds”.

B3: SREPQYGGPAAD8 (the octovalent dendrimer of SEQ ID NO: 5) (peptide)
peptide branch of the dendrimer: SREPQYGGPAAD
notes: also called nonspecific octovalent dendrimer
Take B3: the binding result in test [6] is “no binding”.
